Test results reported in article doi:10.1101/2020.05.20.106609 (bioRxiv, 2020).
Numbering of substitutions follows the chain as printed.

Target: SARS-CoV-2 spike protein (SARS-CoV-2 Wuhan-Hu-1 (QHD43416), UniProt P0DTC2, stabilised)
Test: ELISA

B1: MD47 (scFv, V domains shown)
V domain 1: QMQLVQSGGGLVQPGGSLRLSCAASGFTFSSYAMSWVRQAPGKGLEWVSAISSGGSTYYADSVKGRFTISRDNSKNTLYLQMNSLRAEDTAVYYCAKDLVTAPSYEAFDIWGQGTMITVSS
V domain 2: NFMLTQPPSVSVAPGKTARITCGGNNIGSKSVHWYQQKPGQAPVLVIYYDSDRPSGIPERFSGSNSGNTATLTISRVEAGDEADYYCQVWDSSSHHHVVFGGGTKGTVL
B1: binds.

B2: MD62 (scFv, V domains shown)
VH: EVQLVQSGGGLIQPGGSLRLSCAASGVTVSSNYMTWVRQAPGKGLEWVSLIYSGGSTYYADSVKGRFTISRDNSKNTLYLQMNSLRAEDTAVYYCARDLQYYGMDVWGQGTMVTVSS
VL: AIRMTQSPSSVSASVGDRVTITCRASQDIGSWLGWYQQKPGKAPKLLIYAASSLAGGVPSRFSGSGSGTDFTLTISSLQPEDFATYYCQQANSFPLTFGGGTKLEIK
B2: binds.

B3: MD17 (scFv, V domains shown)
VH: EVQLLESGGGLVQPGGSLRLSCSASGFTFSTYVMNWVRQAPGKGLEHVSGISSDGGITYYADSVKGRFTISRDNSKNTLYLQMSSLRVEDTAVYYCVKDQDSSSWYDAFDIWGQGTMVTVSS
VL: DIVMTQSPSSLSASVGDRVTITCRASQSISNYLNWYQQKLGKAPKLLTYAASRLQSGVPSRFSASGSGTEFTLTISSLQPEDFATYYCQQSYTTPLTFGGGTKLEIK
B3: binds.

B4: MD29 (scFv, V domains shown)
VH: B3 VH with E1Q, V2M, L5V, E6Q, L45P
VL: NIRLTQSPSSLSASVGDRVTITCRATQSISSYLNWYQQKPGKAPNLLIYAASSLQSGVPSRFSGSGSGTDFTLTISSLQPEDFATYYCHQTYTSPYTFGQGTKLEIK
B4: binds.
